Laboratory results as given in PMC7790537.

Tests used:
[1] = molecular target: recombinant trimeric HA of A/New Caledonia/20/1999 (H1N1) (influenza A virus A/New Caledonia/20/1999 (H1N1)) (UniProt Q6WG00)
[2] = molecular target: recombinant trimeric HA of A/Victoria/210/2009 (H3N2) (influenza A virus A/Victoria/210/2009 (H3N2))

Fab-deficient (ΔFab) IgA1 polymer (from UniProt P01591 23-159) (complex)
> 500 µg/mL: HI activity, minimum HI concentration, NC20 virus [1] | HI activity, minimum HI concentration, Vic210 virus [2] | NT activity, minimum virus-neutralizing concentration, Vic210 virus [2]

Fab-deficient (ΔFab) IgA2m2 polymer (from UniProt P01591 23-159) (complex)
> 500 µg/mL: HI activity, minimum HI concentration, NC20 virus [1] | HI activity, minimum HI concentration, Vic210 virus [2] | NT activity, minimum virus-neutralizing concentration, Vic210 virus [2]
